# Laboratory results taken from patent US20140086913A1 (Gilead, published 2014).
# T1: mouse ECD-DDR1-Fc (mouse; human, UniProt Q03146 22-414)
# T1 construct: also called mouse DDR1-ECD; wild-type mouse DDR1-ECD; not shown: human IgG1 Fc of the vector pFuse-hIgG1-Fc1 (Invivogen)
# T1 sequence: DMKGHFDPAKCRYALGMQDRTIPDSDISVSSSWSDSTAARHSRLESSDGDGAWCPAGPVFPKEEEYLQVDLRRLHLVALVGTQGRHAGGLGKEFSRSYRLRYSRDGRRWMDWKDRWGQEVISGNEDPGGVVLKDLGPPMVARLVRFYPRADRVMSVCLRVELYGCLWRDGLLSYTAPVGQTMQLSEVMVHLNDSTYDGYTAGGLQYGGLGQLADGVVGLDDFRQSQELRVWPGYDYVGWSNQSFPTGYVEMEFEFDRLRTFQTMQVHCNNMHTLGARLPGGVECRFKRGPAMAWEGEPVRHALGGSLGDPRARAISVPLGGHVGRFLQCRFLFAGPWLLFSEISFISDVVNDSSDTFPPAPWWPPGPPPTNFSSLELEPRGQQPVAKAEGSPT
# T2: human DDR2 stably expressed on HEK293 cells (human, UniProt Q16832 22-855)
# T2 construct: whole, on cells; also called hDDR2
# T2 sequence (looked up): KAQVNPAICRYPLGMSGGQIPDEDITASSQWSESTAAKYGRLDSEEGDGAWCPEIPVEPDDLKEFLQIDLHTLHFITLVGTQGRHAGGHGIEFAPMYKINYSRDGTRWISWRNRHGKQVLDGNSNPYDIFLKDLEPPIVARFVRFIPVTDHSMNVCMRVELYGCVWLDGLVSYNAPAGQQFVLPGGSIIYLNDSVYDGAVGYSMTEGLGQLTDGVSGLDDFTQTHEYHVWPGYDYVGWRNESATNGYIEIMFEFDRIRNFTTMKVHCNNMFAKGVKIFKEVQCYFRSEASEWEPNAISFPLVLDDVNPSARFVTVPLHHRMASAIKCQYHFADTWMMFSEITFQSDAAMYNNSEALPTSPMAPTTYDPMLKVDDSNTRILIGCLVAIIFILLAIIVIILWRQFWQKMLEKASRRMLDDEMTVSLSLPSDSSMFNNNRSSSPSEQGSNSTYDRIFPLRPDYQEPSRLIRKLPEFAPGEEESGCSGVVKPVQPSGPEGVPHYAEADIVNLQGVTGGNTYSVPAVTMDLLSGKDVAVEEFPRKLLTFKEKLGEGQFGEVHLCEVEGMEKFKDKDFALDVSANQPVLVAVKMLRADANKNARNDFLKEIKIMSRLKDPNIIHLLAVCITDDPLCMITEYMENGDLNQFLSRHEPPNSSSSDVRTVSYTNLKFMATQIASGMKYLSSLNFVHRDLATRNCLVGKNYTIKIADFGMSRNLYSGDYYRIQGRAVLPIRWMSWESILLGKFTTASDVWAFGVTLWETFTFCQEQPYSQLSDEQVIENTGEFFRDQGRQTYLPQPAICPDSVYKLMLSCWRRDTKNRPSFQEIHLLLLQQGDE
# B1: AB2029 (antibody, V domains shown)
# VH: QVLLRQSGPGLVQPSQSLSITCTVSGFSLTTYGVHWVRQSPGKGLEWLGVIWSGGSTDYNAAFISRLTISKDNSKSQVFFKMNSLQANDTAIYYCARYYSGSSLYFAMDYWGQGTSVTVSS
# VL: NIVMTQTPKFLLVSAGDTVTITCKASQSVSNDVAWYQQKPGQSPKLLIYYASNRYTGVPDRFTGSGFGTDFTFTISTVQTEDLAVYFCQQDYSSLTFGAGTKLELKR
# notes: mouse hybridoma mAb
# B2: AB2021 (antibody, V domains shown)
# VH: EVKLVESGGGLVKPGGSLNLSCAASGFTFSNYAMSWSRQTPEKRLEWVASISSGGNTYYPDSVRGRFTISRDNARNILYLQMSSLRSEDTAMYYCAREPGTYNWYFDVWGAGTTVTVSS
# VL: DIVMTQSQKFMSTSVGDRVSVTCKASQNVGTNVAWYQQKPGQSLKALIYSASYRFSGVPDRFTGSGYGTDFTLTISNVQSEDLAEYFCQQCNSYPLTFGAGTKLELKR
# notes: mouse hybridoma mAb
# B3: AB2034 (antibody, V domains shown)
# VH: QVQLKESGPGLVAPSQSLSITCTVSGFSLTSYHIHWVRQPPGKGLEWLVVIWSDGSTTYNSALKSRLSISKDNSKSQVFLKMNSLQTDDTAIYYCARTGNFYAMDYWGQGTSVTVSS
# VL: SIVMTQTPKFLLVSAGDRVTITCKASQSVSNDVVWYQQKPGQSPKLLIYYASSRYTGVPDRFTGSGYGTDFTFTISTVQAEDLAVYFCQQDYSSPYTFGGGTKLEIR
# notes: mouse hybridoma mAb
# B4: AB2009 (antibody, V domains shown)
# VH: EVQLVESGGGLVQPGGSLKFSCAASGFTFSSYGMSWVRQTPDKRLELVAIINSHGFSTYYPDSVKGRFTISRDNAKNTLYLQMSSLKSEDTAIYYCARGGYGNYGMDYWGQGTSVTVSS
# VL: DIVLTQSPASLAVSLGQRATISCRASESVDSYGNSFMHWYQQKVGQPPKLLIFRASNIESGIPARFSGSGSRTDFTLTINSVEADDVATYYCQQSNEAPYTFGGGTKLEIKR
# notes: mouse hybridoma mAb
# B5: AB2079 (antibody, V domains shown)
# VH: EVMLVESGGGLVKPGGSLKLSCAASGFTFSNYAMSWVRQTPEKRLEWVAKTSSGDTYTYYPDSVKGRFTISRDNAKNTLYLQMTSLRSEDTAIYYCARQDYYGITPWFFDVWGAGTTVTVSS
# VL: ENVLTQSPAIMSASPGEKVTMTCRASSSVSSIYLHWYQQKSGASPKLWIYSTSNLASGVPARFSGSGSGTSYSLTITSVEAEDAATYYCQQYSGYPLITFGAGTKLELKR
# notes: mouse hybridoma mAb
# B6: AB2065 (antibody, V domains shown)
# VH: B5 VH
# VL: B5 VL
# notes: mouse hybridoma mAb
# Target: DDR1 endogenously expressed on human cancer cell lines (T47D, HCT-116, A431) (human) (UniProt Q08345)
# Assay: cell-based or functional assay
"EC50, DDR1 phospho-specific ELISA (T47D)","Maximal inhibition, DDR1 phospho-specific ELISA (T47D)",NPI of cluster formation at 66 nM (A431 cells),"EC50, cluster formation assay (A431 cells)",Binder
0.55 nM,100%,100%,,B1
2.26 nM,100%,106%,18.5 nM,B2
0.63 nM,100%,119%,7.87 nM,B3

# Target: T3, DDR1ECD-Fc (R&D Systems, Catalog #2396-DR) (human, UniProt Q08345 21-416)
# T3 construct: range 21-416; construct as described for the bought immunogen; also called human ECD-DDR1-Fc; Fc-ECD-DR1; not shown: human IgG1, Pro100-Lys330
# Assay: ELISA
row,Kd,Binder
1,0.257 nM,B4
2,0.088 nM,B5

# Target: human DDR1 (isoform B) stably expressed on HEK293 cells (human) (UniProt Q08345)
# Assay: flow cytometry, HEK293/human DDR1, normalized to empty-vector cells
# Chain of human DDR1 (isoform B) stably expressed on HEK293 cells (human) (Q08345 19-913): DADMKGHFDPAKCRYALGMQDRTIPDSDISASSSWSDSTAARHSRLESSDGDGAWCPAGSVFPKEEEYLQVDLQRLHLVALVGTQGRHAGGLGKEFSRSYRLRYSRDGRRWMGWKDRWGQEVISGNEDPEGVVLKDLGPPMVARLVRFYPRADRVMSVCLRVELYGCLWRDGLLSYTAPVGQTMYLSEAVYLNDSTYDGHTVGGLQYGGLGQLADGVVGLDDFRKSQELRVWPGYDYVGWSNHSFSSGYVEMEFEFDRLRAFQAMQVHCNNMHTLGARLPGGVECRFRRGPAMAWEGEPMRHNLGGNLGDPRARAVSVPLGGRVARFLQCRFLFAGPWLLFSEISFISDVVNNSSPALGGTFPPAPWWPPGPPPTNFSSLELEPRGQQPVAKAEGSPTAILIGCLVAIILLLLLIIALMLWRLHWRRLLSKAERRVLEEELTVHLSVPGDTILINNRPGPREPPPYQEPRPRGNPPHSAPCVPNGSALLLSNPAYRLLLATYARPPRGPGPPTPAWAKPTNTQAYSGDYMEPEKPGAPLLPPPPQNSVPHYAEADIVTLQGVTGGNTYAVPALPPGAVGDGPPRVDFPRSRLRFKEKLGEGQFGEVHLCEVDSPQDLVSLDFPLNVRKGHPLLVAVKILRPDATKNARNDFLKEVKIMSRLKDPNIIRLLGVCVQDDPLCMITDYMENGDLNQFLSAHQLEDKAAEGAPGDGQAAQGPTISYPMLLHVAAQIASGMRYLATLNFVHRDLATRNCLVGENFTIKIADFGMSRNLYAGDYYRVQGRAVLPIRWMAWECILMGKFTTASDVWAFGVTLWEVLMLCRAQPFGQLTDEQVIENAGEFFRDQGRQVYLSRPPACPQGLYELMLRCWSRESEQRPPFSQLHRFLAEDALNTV
row,MFI,Binder
1,11900 MFI,B4
2,14300 MFI,B5

# Target: T1, mouse ECD-DDR1-Fc
# Assay: ELISA, coated antigen
# Experimental: (§1) In this study, ELISA was used to determine the affinity of murine anti-DDR1 monoclonal antibodies to the extracellular domain (ECD) of either human or murine DDR1. A 96-well MaxiSorb ELISA plates (Nunc) were coated with 2 μg/mL of one of three purified recombinant tagged proteins: human ECD-DDR1-His protein, human ECD-DDR1-Fc, or mouse ECD-DDR1-Fc overnight at 4° C. The next day, the plates were blocked with 5% bovine serum albumin (BSA, Jackson Immunoresearch) prior to the addition of serially diluted anti-DDR1 monoclonal antibodies. Antibodies were incubated for 1 hr at room temperature. The binding of antibody to the antigen was detected by incubating samples with anti-mouse IgG-HRP (horse radish peroxidase) secondary detection antibody (Jackson Immunoresearch) for 1 hr. After a washing step, 3,3′,5,5″-tetramethylbenzidine (TMB) reagent was added for HRP to produce a colorimetric signal. The reaction was stopped by addition of 1M hydrochloric acid after 2 minutes and measured for absorbance (optical density, OD) at 450λ on a Molecular Devices plate reader. The OD values were plotted against antibody concentration and fitted using a using 4-parameter logistic equation in SoftMax software (Molecular Devices). The apparent affinity constant (KD) was taken from the C-parameter of the equation (y=(A−D)/(1+(x/C)̂B)+D). The apparent affinity constants were summarized (in some cases shown as average values) in Table 10 below. Lower value indicates higher binding affinity of the antibody to the antigen.
row,binding result,Binder
1,no binding,B1
2,no binding,B2
3,no binding,B6
4,no binding,B5
5,no binding,B3

# Target: T2, human DDR2 stably expressed on HEK293 …
# Assay: flow cytometry, HEK293/hDDR2
# Experimental: Additional monoclonal antibodies were obtained from individual hybridomas in Example 1 and were characterized for their properties.
# Cells were cultured in DMEM with 10% FBS and 0.8 mg/mL hygromycin. When cells reached 60-80% confluence, they were centrifuged at 1,200 rpm for 5 minutes, suspended in FACS buffer (1×PBS, 1% BSA), and aliquoted into a 96-well plate at 1×10⁶ cells per well. The anti-DDR1 monoclonal antibodies or appropriate isotype controls at 2 μg per 1×10⁶ cells were added and incubated at 4° C. for 1 hr. The cells were washed twice with FACS buffer then stained with the anti-IgG-PE secondary antibody at 10 μL per well at 4° C. for 1 hr. The cells were washed again and measured for the MFI values or signals using flow cytometry (LSR Fortessa instrument, BD Biosciences). Background MFI signals from vector-only cells (i.e. no DDR1 or DDR2 expression) was subtracted from those of the cells treated with antibodies. Higher MFI values or signals indicated increased binding or specificity of the anti-DDR1 antibodies to the DDR1 on the cell surface.
row,MFI,Binder
1,277 MFI,B4
2,263 MFI,B1
3,92 MFI,B2
4,353 MFI,B6
5,326 MFI,B5
6,175 MFI,B3

# Target: human DDR1 (isoform B) stably expressed on HEK293 cells (human) (UniProt Q08345)
# Assay: flow cytometry, HEK293/hDDR1
row,MFI,Binder
1,11900 MFI,B4
2,11700 MFI,B1
3,15800 MFI,B2
4,3560 MFI,B6
5,14300 MFI,B5
6,11400 MFI,B3

# Target: DDR1 endogenously expressed on human cancer cell lines (T47D, HCT-116, A431) (human) (UniProt Q08345)
# Assay: cell-based or functional assay
# Remark: another data set of the same source
"EC50, DDR1 phospho-specific ELISA (T47D)","EC50, cluster formation assay (A431 cells)","Maximal inhibition, DDR1 phospho-specific ELISA (T47D)",NPI of cluster formation at 66 nM (A431 cells),Binder
0.47 nM,0.43 nM,100%,127%,B4
0.35 nM,,100%,15.8%,B6
0.13 nM,,,0.5%,B5

# Target: DDR1 with a ProLink Tag (PK) in engineered U20S cells (DiscoveRx), Q08345
# Assay: cell-based or functional assay
row,"Mean EC50, DDR1 Tyr513 phosphorylation assay (U20S)",Binder
1,1.5 nM,B4
2,4.9 nM,B1
3,7.71 nM,B2
4,25.7 nM,B6
5,5.2 nM,B3

# Target: DDR1 endogenously expressed on human cancer cell lines (T47D, HCT-116, A431) (human) (UniProt Q08345)
# Assay: flow cytometry, T47D cells
row,MFI,Binder
1,5930 MFI,B4
2,3560 MFI,B1
3,5010 MFI,B2
4,4400 MFI,B6
5,6130 MFI,B5
6,4370 MFI,B3

# Target: T3, DDR1ECD-Fc (R&D Systems, Catalog …)
# Assay: ELISA, coated antigen, apparent KD
# Experimental: as §1
row,Kd,Binder
1,0.257 nM,B4
2,0.302 nM,B1
3,0.252 nM,B2
4,0.234 nM,B6
5,0.0883 nM,B5
6,0.256 nM,B3

# Target: T1, mouse ECD-DDR1-Fc
# Assay: ELISA, coated antigen, apparent KD
# Experimental: as §1
row,Kd,Binder
1,6.93 nM,B4

# Target: T4, human ECD-DDR1-His protein (human, UniProt Q08345 21-416)
# T4 construct: also called huDDR1-ECD-His; DDR1ECD-6Xhis; not shown: His tag
# Assay: ELISA, coated antigen, apparent KD
# Experimental: as §1
row,Kd,Binder
1,0.197 nM,B4
2,0.397 nM,B1
3,0.153 nM,B2
4,0.197 nM,B6
5,0.07 nM,B5
6,0.311 nM,B3

# Target: DDR1 endogenously expressed on human cancer cell lines (T47D, HCT-116, A431) (human) (UniProt Q08345)
# Assay: flow cytometry, HCT116 cells
row,MFI,Binder
1,1480 MFI,B4
2,1010 MFI,B1
3,1390 MFI,B2
4,2480 MFI,B6
5,1730 MFI,B5
6,1060 MFI,B3
